Tests used:
FAM122A = FAM122A (UniProt Q96E09 1-287); test: EMSA
GATA1 = GATA1 (UniProt P15976 1-413); test: competition
Chain of GATA1 (P15976 whole entry): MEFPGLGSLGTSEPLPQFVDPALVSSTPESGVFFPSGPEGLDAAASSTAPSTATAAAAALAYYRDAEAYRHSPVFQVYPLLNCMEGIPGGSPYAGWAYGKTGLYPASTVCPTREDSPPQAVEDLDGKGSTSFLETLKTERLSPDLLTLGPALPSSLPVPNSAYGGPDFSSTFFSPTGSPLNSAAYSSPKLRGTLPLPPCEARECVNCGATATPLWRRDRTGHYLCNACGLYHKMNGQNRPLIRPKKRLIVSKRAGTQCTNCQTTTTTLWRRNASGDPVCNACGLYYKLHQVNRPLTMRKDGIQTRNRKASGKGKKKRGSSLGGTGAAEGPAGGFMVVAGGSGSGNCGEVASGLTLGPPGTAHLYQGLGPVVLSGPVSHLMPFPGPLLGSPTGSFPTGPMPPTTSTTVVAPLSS

Chain of FAM122A (Q96E09 whole entry): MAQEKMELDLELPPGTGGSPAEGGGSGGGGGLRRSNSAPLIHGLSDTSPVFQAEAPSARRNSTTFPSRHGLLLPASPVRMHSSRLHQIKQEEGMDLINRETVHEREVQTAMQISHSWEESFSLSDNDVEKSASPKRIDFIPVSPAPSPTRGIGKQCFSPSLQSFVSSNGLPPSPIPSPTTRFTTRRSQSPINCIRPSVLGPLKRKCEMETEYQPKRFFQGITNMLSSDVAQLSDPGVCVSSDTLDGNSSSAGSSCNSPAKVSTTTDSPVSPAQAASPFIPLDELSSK

Binder	binding result (FAM122A)	binding result (GATA1)
GATA probe, two GATA sites (dsDNA) DNA 1: CACTTGATAACACAAAGTGATAACTCT DNA 2: AGAGTTATCACTTTGTGTTATCAAGTG	no binding	–
mutant GATA competitor (dsDNA) DNA 1: CACTTAGCGACACAAAGTAGCGACTCT DNA 2: AGAGTCGCTACTTTGTGTCGCTAAGTG	–	no binding

— paper PMC7486200
